Values of other authors, collected in patent publication US20100311759A1, “ANTIPARASITIC AGENT FOR FISH AND METHOD OF CONTROLLING PROLIFERATION OF FISH PARASITES” (NIPPON SUISAN KAISHA, LTD., priority 2007, published 2010).

Tested on: White spot disease
Conditions: 40 mg per 1 kg of fish body weight orally per day, 28-day experimental period

B1: lactoferrin: marketed as an additive for fisheries; thought to increase non-specific biophylactic ability of host fish (protein, UniProt P24627 20-708, looked up)
Lactotransferrin: APRKNVRWCTISQPEWFKCRRWQWRMKKLGAPSITCVRRAFALECIRAIAEKKADAVTLDGGMVFEAGRDPYKLRPVAAEIYGTKESPQTHYYAVAVVKKGSNFQLDQLQGRKSCHTGLGRSAGWIIPMGILRPYLSWTESLEPLQGAVAKFFSASCVPCIDRQAYPNLCQLCKGEGENQCACSSREPYFGYSGAFKCLQDGAGDVAFVKETTVFENLPEKADRDQYELLCLNNSRAPVDAFKECHLAQVPSHAVVARSVDGKEDLIWKLLSKAQEKFGKNKSRSFQLFGSPPGQRDLLFKDSALGFLRIPSKVDSALYLGSRYLTTLKNLRETAEEVKARYTRVVWCAVGPEEQKKCQQWSQQSGQNVTCATASTTDDCIVLVLKGEADALNLDGGYIYTAGKCGLVPVLAENRKSSKHSSLDCVLRPTEGYLAVAVVKKANEGLTWNSLKDKKSCHTAVDRTAGWNIPMGLIVNQTGSCAFDEFFSQSCAPGADPKSRLCALCAGDDQGLDKCVPNSKEKYYGYTGAFRCLAEDVGDVAFVKNDTVWENTNGESTADWAKNLNREDFRLLCLDGTRKPVTEAQSCHLAVAPNHAVVSRSDRAAHVKQVLLHQQALFGKNGKNCPDKFCLFKSETKNLLFNDNTECLAKLGGRPTYEEYLGTEYVTAIANLKKCSTSPLLEACAFLTR
- infection: no infection was observed
